Assay results reported in the nanobody polyreactivity screen of Harvey et al. (2022).

Test: yeast display, Sf9 membrane polyspecificity reagent, FACS + sequencing; frameworks hold sequencing errors
Procedure, shortened: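 A nanobody's polyreactivity label depends on the gate it was sorted from. Yeast display cells were stained with 10% biotinylated, detergent-solubilized Sf9 membrane reagent for 1 hour at 4 °C, enriched on streptavidin microbeads and sorted by FACS. The low and high (top ~1%) gates were set on anti-HA fluorescence for expression and streptavidin fluorescence for reagent binding.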

Sequence	polyreactivity (PSR sort gate)
QVQLVEAGGGLVQAGGSLRLSCAASGRTFLRYTMGWYRQAPGKEREWVASITRGGSTYYADSVKGRFTISRDNAKNTVYLQMNSLKPEDTAVYYCAAGKALLSRYYYWGQGTQVTVSS	high polyreactivity
QGQLVESGGGLVQAGGSLRLSCAASGSISGNYAMAWYRQAPGKERELVASIRYTGARTYYADSVKWRFTISRDNAKNTVYLQMNSLKPEDTAVYYCAADVKRDRVWGGDYWGQGTQVTVSS	low polyreactivity
QVQHVESGGGLVQAGGSLRLSCAASGGTFGDYAMGWSRQAPGKEREFVASITRSVSNTYYADSVKGRFTISRDNAKNTVYLQMNSLKPEDTAVYYCNADRWYPWRYIMDYWGQGTQVTVSS	low polyreactivity
QVQLVESGGGLVQAGGSLRLSCAASGRTSGNYAMGWYRQAPGKERELVAAIRYSGSSTFYADSVKGRFTISRDNAKNTVYLQMNSLKPEDTAVYYCARDIRRKGFRYDYWGQGTQVTVSS	high polyreactivity
QVQLVESGGGLVQAGGSLRLSCAASGSIFYWNAMGWYRQAPGKERELVAAIDYSDGSTYYADSVKGRFTISRDNAKNTVYLQMNSLKPEDTAVYYCAAEWYYDLYDYWGQGTQVTVSS	high polyreactivity
QVQLVESGGGLVQAGGSLRLSCAASGITFRFYAMGWYRQAPGKERELVAVISRGGGTTYYADSVKGRFTISRDNAKNTVYLQMNSLKPADTSVYYCAADYYYVQSELGYDYWGQGTQVTVSS	high polyreactivity
QVQLVESGGGLVQAGGSLRLSCAASGSTFKSYAMGWYRQAPGKERELVAAITHRGSTYYADSVKGRFTTSRDNAKNTVYLQMNSLKPEDTAVYYCNVRRIGNGRRVDYWGQGTQVTVSS	high polyreactivity
QVQLVESGGGLVQAGGSLRLSCAASGLTFYLYAMGWYRQAPGKERELVAAISRSGGSTYYADSVKGRFTISRDNAKNTVYVQMYSLKPEDTAVYYCAAVTYYPEIRKYYDWRQGTQVTVSS	high polyreactivity
QVQLVESGGGLVQAGGSLRLSCAASGYTFANNAMGWYRQAPGKERELVAVITWSGDSTYYADSVKGRFTISRDNAKNTVYLQMNSQKAEDTAVYYCAREFSDGLSGKFDYWGQGTQLTVSS	low polyreactivity
QVQLVESGGGLVQAGGSLRLSCAASGRIFRYYAMGWYRQAPGKDRELVAAIRSASSTYYADSVKGRFTISRDNAKNTVYVQMNSLKPEDTAVSYCAARLYGVYKRRYYYWGQGTQVTVSS	high polyreactivity
QVQLVESGGGLVQAGGSLRLSCAASGFIFTSYDMGWYRQAPWKEREFVAAISWSGDRTYYADSVKGRFTISRDYAKNTVYLQMNSLKPEDTAVYYCAADRSIRRYYGYDYWGQGTQVTVSS	high polyreactivity
QVQLVESGGVLVQAGGSLRLSCAASGLTFKWYAMGWYRQAPGKERELVAAITKSGGTTYADSVKGRFTISRDNAKNTVYLQMNSLKPEDTAVYYCAARYWRLWNTVRYEGDFSDGYWGQGTQVTVSS	high polyreactivity
QVQIVESGGGLVQAGGRLRLSCAASGSIFSIYDMGWYRQAPGKERELVAAITWGGASTYYADSVKGRFTISRDNAKNTVYLQMNSLKPEDTAVYYCAADSLTWNGTYYYWGQGTQVTVSS	high polyreactivity
QEQLQVSGGHLVQAGGSLRLSCAASGTIYGLTSMGWYRQAPGKEREFVAAITDGGNTNYADSVKGRFTISRDNAKKTVYLLMFCLKPEDTAVYYCAVLFSDDAYYAYWCQGTQVTVSS	low polyreactivity
QGQLVESGGGLVQAGGSLRLSCAASGSISTYYAMGWYRQAPGKERELVAAISSSGVRTYYADSVKGRFTIARDNAKNTVYLQMNSLKREDTAVSYCAAEVYYLYFYIMDYWGQGTQVTVSS	high polyreactivity
QVQLVESGGGLVQAGGSLRLSCSASGRTFRSNAMGWYRQAPGKEREFVAAIRSRGGSTYYADSVKGRFTISRDNAKNSVYLQMNSLKPEDTAVYYCADKHGSTSHDSWGQGTQVSVSS	high polyreactivity
QVQLVESGGGLVQAGGSLRLSCAAYGFTFTRKAMGWYRQAPGKERELVAAISGSGGSTYYADSVKGRYTISRDNAKNTVYLQMNSLKPADTAVYYCAKDGWWRKYDYWGQGTQVTVSS	high polyreactivity
QVQLVESGGGLFQAGGSLRLSCAASGRTLLGNAMVWYRQAPGKEREFVAAISYRGGSTYYADSVKGRFTISRDYAKNTVYLQMKSLKPEDTAVYYCAASSFKYSRFDYWGQGTQVTVSS	low polyreactivity
QVQLVESGGGLVQAGGSLRLSCAASGFIFDPNAMGWYRLAPGKERELVAAISSSGGRTYYADSVKGRFTISRDNAKNTVYLQMNSLKPEDTAVYYCNARDYSGFQTGASAAFDYWGQGTQVTVSS	low polyreactivity
QVQLVESGGGLVQAGGSLRLSCAASGNTFGPYDMGWYRQSPGKERELVAGITSGGSTYYADSVKGRFTISRDNAKNTVYLQMNSLKPEDTAVYYCAADDYLWVYWYDYWGQGTQVTVSS	high polyreactivity
QVQLEESGGGLVQAGGSLRLSCAASGYTFGTYTMGWYRQAPGKERELVAGIDSGGTTNYADSVKGRFTISRDNAKNTVYLQMNSLKPEDTAVYYCTAYHLLIFDYYLGLYYYRGNYYWGQGTQVTVSS	low polyreactivity
QVQLVESGGGLVHAGGSLRLSCAASGGIFPHNVMGWYRQAPGKEREMVAAITWSGGRTYYADSVKGRFTNSRDNAKNTVYFQLNSLKPEDTAVYYCAADPFYLTKSGGWGDYWGQGTQVTVSS	low polyreactivity

Sequence	polyreactivity (PSR sort gate)
QVQLVESGGGLVQAGGRLRLSCAASGYTFAGNAMGGYRPAPGKERELVAVITYSGGSTYYADSVKGRFTISRDNAKNTVYLQMNSLKPEDTAVYYCAADWQYSPRMDYWGQGTQVTVSS	low polyreactivity
QVQLVESGGGLVQAGGSLRLSCAASGLIFSAYDMGWYRQAPGKERELVASITSGGSTYYADSVKGRFTISRDNAKNTVYLQMNSLKPEDTAVYYCNADGGWYPYRWRYIEGEYWGQGTQVTVSS	low polyreactivity
QVQLVESGGGLVQAGGSLRLSCAASGFTLLIYAKGWYRQAPGKERELVAAITWRGSGTYYADSVKGRFTISRDIAKNSVYLQMNSLKPEDTAVYYCAARTARRTYDYWGQGTQVTVSS	low polyreactivity
QVQLVESGGGLVQAGGSIRLSCAASGRTFGDYAMGWYRQAPGKERELVAAISSSGGRTYYADSVKGRFTISRDNAKNTVYLQMNSLKPEDTAVYYCAAQSKYYQYYSWGQGTQVTVSS	high polyreactivity
QVQLQESGGGLVQAGGSLRLSCAASGYISYCVGMGWYRQAPGKEREFVASIAVGSNTYYADSVKGRFTISRYNAKISVYLQRNSLKPEDTAVYYCSVEDSWTYRFDYWGQGTQVTVSS	high polyreactivity
QVQLVESGGGLVQAGGGLRLSCAASGTFKRNAMGWYRQAPGKERELVATITRTGSTTYADSVKGRFTISRDNAMNTVYLQMYSQKPEDTAVYYCAAGYPPEDPEDYWGQGTQVTVSS	low polyreactivity
QVQLVESGGGLVQAGGSLRLSCAASGSTFGYYAMGWYRQAPGKERELVATMSATGGSTYYADSVKGRFTISRDKAKNTVYLQMNSLKPEDTAVYYCNAEYDRGNEYDYWGQGTQVTVSS	low polyreactivity
QVQLVESAGGLVQAGGSLRLSCAASGRTFGRYAMGGYRQAPGKERELVAGISGSVGITYYADSVKGRFTISRDNAKNTVYLQMNSLKPEDTAVYYCAVVARAGHKYDYWGQGTQVTVSS	low polyreactivity
QVQLVESGGGLVQAGGSLRLSCAASGFTFAVYAMGWDSQAPGKERELVAAISRSGTRTYYADSVKGRFTSSRDNAKNTVSLQMNSLKPEDTAVYYCAADKYRHGYDYWGQGTQVTVSS	low polyreactivity
QVQLVESGGGLVQAGGSLRLSCAASGSIFAKYAMGWYRQAPGKERELVAAITSGGSTNYADSVKGRFTISRDNAKITVYLQINSLKPEDTAVYYCNATGLYYDFYKLDYWGQGTQVTVSS	low polyreactivity
QVQLVESGGGLVQAGGSLRLSCAASGRTFGRNAMGWYRQAPGKERELVAAISSSGASTYYADSVKGRFTISRDNAKNTVYLQMNSLKPEDTAVYYCAKDVWGSRYAYDYWGQGTQVTVSS	low polyreactivity
QVQLVESAGGLVQAGGSLRLSSGASGSTFNTYAMGWYRQAPGKERELVAAITYNGGSTYYADSVKGRFTISRDNAKNTVYLQMNSLKPEDTAVYYCAAPRSRSRTSRFEYWGQGTQVTVSS	high polyreactivity
QVQLVESGGGLVQAGGSLRLSCSASGSTFRIYAMGWYRQAPGKERELVAAISWSSGSTYYADSVKGRFTISRDNAKKSVYLQMNSLKPEDTAVYYCATYARRSGYYYWGQGSQVTVSS	high polyreactivity
QVQLVESGGGLVQAGGSLRLSCAASGLIFGYYAMGWYRQAPGTEREFVAAIDGSDGTTYYADSVKGRFTISRDNAKNTVYLQMNSLKPEDTAVYYCNAESSSYSCDMGYDYWGQGTQVTVSS	low polyreactivity
QVQLVESGGGLVQAGGSLRLSCAASGYIFGYYTMGWYRQAPGKERELVATIRSGGSTYYADSVKGRFTISRDNAKNTVYLQMNSLKPEDTAVYYWAKRVRRISEYGYWGQGTQVTVSS	high polyreactivity
QFQLVESGGGLVQAGGSLRLSCAASGIIFNRNVMRWYRQAPAKERELVAAITWGGGRTYYADSVKGRFTISRDNAKNTVYLQMNSLIPVDTAVYFCAARSRGSSRFDYWGQGTQVTVSS	high polyreactivity
QVQLVESGGGLVQAGGSLRLSCAASGRIFWYYTMGWYRQAPGKERELVAAISNGGSTYYADSVKGRFTISRDNAKNTVYLQMNSLKPEDTAVYYCAAVGARGGYFRMDYWGQGTQVTVSS	high polyreactivity
QVQLVESGGGLVQAGGSLRLCCAASGSIFRPNAMGWYRQAPGKERELVAGISSRGGSTYYADSVKGRFTISRDNAKNTVYLQMNSLKPEDTAVYYCNALTYSSQRNSFYYSFDHWGQGTQVTVSS	high polyreactivity
QVQLVESGGGLVQAGGSLRLSCAASGSIFSTNAMGWYRQAPGKERELVATISGADGTNYADSVKGRFTISRDNAKNTVYLQMNSLKPEDTAVYYSNAFPWPVYRGYYWGQGTQVTVSS	low polyreactivity
QVQLVESGGGLVQAGGRLRLSCAASGRTFYGFAMGWYRQAPGKERELVASISRDGSTNYADSVKGRFTISRDNAKNTVYLQMNSLKPEDNAVYYCAADIWYYRYPIYYYSYDYWGQGTQVTVSS	low polyreactivity
QVQLVESGGGLVQAGGSLRLSCAASGNSFSQYAMGWYRQAPGKERELVATISKSSGSTYYADSVKGRFTISRDNAKNTVYLQMNSLKPEDTAVYSCNAVSSDVYHHLGVLFFSTWYDYWGQGTQVTLSS	low polyreactivity
